# Results taken from the supplement of paper PMC9233669.
# Fewer inactive variants are shown than the library holds.
# Legend:
# biotinyl-Trp-oxazolone = experiment: self-aminoacylation, catalytic enhancement (BWO) (fold over background); higher = more active; k-Seq, kA / k0A0; sequences stand for … in GGGAAUGGAUCCACAUCUACGAAUUC…UUCACUGCAGACUUGACGAAGCUG
# Outline: (§1)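 Catalytic enhancement equals the median kA over the uncatalyzed rate, the latter read from the low-activity peak of a bimodal Gaussian fit. Values of kA came from fitting each sequence's fraction reacted to a pseudo-first-order model, with 1000 bootstraps. Reacted RNA was captured with streptavidin and quantified by triplicate qPCR and Illumina sequencing after 90 minutes at room temperature with 2–1250 μM biotinyl-aminoacyl-oxazolone and 0.43 μM mutagenized RNA pools bearing a 21-nt variable region.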
# biotinyl-Val-oxazolone = experiment: self-aminoacylation, catalytic enhancement (BVO) (fold over background); higher = more active; k-Seq, kA / k0A0; sequences stand for … in GGGAAUGGAUCCACAUCUACGAAUUC…UUCACUGCAGACUUGACGAAGCUG
# Outline: as §1
# biotinyl-Ile-oxazolone = experiment: self-aminoacylation, catalytic enhancement (BIO) (fold over background); higher = more active; k-Seq, kA / k0A0; sequences stand for … in GGGAAUGGAUCCACAUCUACGAAUUC…UUCACUGCAGACUUGACGAAGCUG
# Outline: as §1
# biotinyl-Phe-oxazolone = experiment: self-aminoacylation, catalytic enhancement (BFO) (fold over background); higher = more active; k-Seq, kA / k0A0; sequences stand for … in GGGAAUGGAUCCACAUCUACGAAUUC…UUCACUGCAGACUUGACGAAGCUG
# Outline: as §1
# biotinyl-Leu-oxazolone = experiment: self-aminoacylation, catalytic enhancement (BLO) (fold over background); higher = more active; k-Seq, kA / k0A0; sequences stand for … in GGGAAUGGAUCCACAUCUACGAAUUC…UUCACUGCAGACUUGACGAAGCUG
# Outline: as §1
# biotinyl-Met-oxazolone = experiment: self-aminoacylation, catalytic enhancement (BMO) (fold over background); higher = more active; k-Seq, kA / k0A0; sequences stand for … in GGGAAUGGAUCCACAUCUACGAAUUC…UUCACUGCAGACUUGACGAAGCUG
# Outline: as §1
Sequence,self-aminoacylation (biotinyl-Trp-oxazolone),self-aminoacylation (biotinyl-Val-oxazolone),self-aminoacylation (biotinyl-Ile-oxazolone),self-aminoacylation (biotinyl-Phe-oxazolone),self-aminoacylation (biotinyl-Leu-oxazolone),self-aminoacylation (biotinyl-Met-oxazolone)
AUUCACUUAGGCCAUCGGGUG [Fam2.2 aminoacylation ribozyme variant],3.26,2.65,2.53,16,3.9,3.04
AUUACGCUGGUCAUCGAGUGU [Fam2.1 aminoacylation ribozyme variant],3.22,2.64,2.34,2.57,2.9,2.96
AUUACCCUUGUCUUCGAGUGA [Fam2.1 aminoacylation ribozyme variant],6.14,2.73,2.64,18.9,4.49,4.46
AUUCACCUAGGUCACCGGGAG [Fam2.2 aminoacylation ribozyme variant],1.81,1.43,1.49,5.9,1.77,2.05
ACACACUUGAAGCAAUCGGUC [Fam1B.1 aminoacylation ribozyme variant],1.17,1.23,1,1.25,0.919,0.88
CUACUUCACACAAUCGGACUG [Fam1A.1 aminoacylation ribozyme variant],0.442,0.736,0.882,0.755,0.673,0.609
AUCCGCCUAGGUCAUCGGGUG [Fam2.2 aminoacylation ribozyme variant],16.4,10.1,10.3,120,18.5,15.9
AUUCACCCAGGUCAUCGGGUA [Fam2.2 aminoacylation ribozyme variant],2.93,2.27,2.25,12.7,2.76,2.51
CCGCACUUCAAGCAAACGGUC [Fam1B.1 aminoacylation ribozyme variant],1.04,1.3,0.937,0.946,0.684,0.724
AAGUUUACUAAUCGUCGCAAG [Fam3.1 aminoacylation ribozyme variant],1.35,1.46,1.64,2.66,1.55,1.13
CUCCUUGAAACAAUCGGUCUG [Fam1A.1 aminoacylation ribozyme variant],1.73,1.19,1.1,1.25,1.18,1.31
CCACGCUUCAAGCAAUCGGUA [Fam1B.1 aminoacylation ribozyme variant],1.13,1.14,0.724,1.37,0.943,0.873
AUUACCCUGGUCACCGAGCGA [Fam2.1 aminoacylation ribozyme variant],0.843,1.25,1.16,0.94,1.54,2.08
AUUACCUGGGUCAUCGAGUGA [Fam2.1 aminoacylation ribozyme variant],5.91,3.05,2.83,5.6,4.74,5.07
AUUCACCUAUGUCAUCGGUUG [Fam2.2 aminoacylation ribozyme variant],0.892,0.872,0.902,0.455,0.919,0.874
AUUACCCUGGUUUUCGAGUGA [Fam2.1 aminoacylation ribozyme variant],10.9,4.43,3.74,45.7,9.42,8.29
AUUGACCAAGGUCAUCGGGUG [Fam2.2 aminoacylation ribozyme variant],6.06,3.9,4.36,45.5,7.01,6.04
AUUCACCUAGGUCAACCGGUG [Fam2.2 aminoacylation ribozyme variant],4.14,2.72,2.99,26.6,6.28,4.9
AAUCACCUAGGUCACCGGGUG [Fam2.2 aminoacylation ribozyme variant],6.06,4.04,4.26,21.8,5.27,4.08
AAGUUGGCUAAUAGGCGCAAG [Fam3.1 aminoacylation ribozyme variant],1.19,1.23,1.71,1.49,1.41,1.14
CCACCCAUCAAGCAAUCGGUC [Fam1B.1 aminoacylation ribozyme variant],0.951,1.07,1.06,0.916,0.876,0.85
ACUCAGCUAGGUCAUCGGGUG [Fam2.2 aminoacylation ribozyme variant],7.25,4.84,4.07,30.7,4.79,4.79
AUUCACCUAGGUCCUCGGUUG [Fam2.2 aminoacylation ribozyme variant],0.815,1.31,1.13,4.8,1.51,1.39
AUGCACCUAGGUCAUCGGGUA [Fam2.2 aminoacylation ribozyme variant],9.92,5.82,6.6,42,12.9,10.2
AAGUUUUCUAAUGGUCGCAAG [Fam3.1 aminoacylation ribozyme variant],1.68,1.38,1.67,2.21,1.6,1.21
AUGACCCUGGUCAUCGAGUGG [Fam2.1 aminoacylation ribozyme variant],20.9,8.22,7.48,215,31,30

Sequence,self-aminoacylation (biotinyl-Trp-oxazolone),self-aminoacylation (biotinyl-Val-oxazolone),self-aminoacylation (biotinyl-Ile-oxazolone),self-aminoacylation (biotinyl-Phe-oxazolone),self-aminoacylation (biotinyl-Leu-oxazolone),self-aminoacylation (biotinyl-Met-oxazolone)
AUUGCCCUGGUCAUCAAGUGA [Fam2.1 aminoacylation ribozyme variant],2.85,1.65,1.39,5.6,2.05,2.36
CUAAUUCAAAAAAUCGGUCUG [Fam1A.1 aminoacylation ribozyme variant],1.18,0.668,0.751,1.9,0.727,0.636
CCACACGUUAAGCAAUCGGUC [Fam1B.1 aminoacylation ribozyme variant],0.931,1.15,1.09,1.05,0.93,0.992
UCACACUUCAAGCAAUCGGUC [Fam1B.1 aminoacylation ribozyme variant],22,1.2,0.996,49.8,1.43,0.998
ACUCACCUAGGUCAUCGGGGG [Fam2.2 aminoacylation ribozyme variant],4.06,3.19,3.75,22.1,3.57,3.42
AUUAAUCUAGGUCAUCGGGUG [Fam2.2 aminoacylation ribozyme variant],4.05,2.72,2.73,15,4.65,3.43
AAUCACCUAGGUCAUCGGAUG [Fam2.2 aminoacylation ribozyme variant],1.08,1.19,1.06,0.476,0.798,0.909
AAGUUUGCUAAGAGUCGCACG [Fam3.1 aminoacylation ribozyme variant],2.06,1.12,1.17,5.94,0.977,0.636
CAUUUUGCUAAUAGUCGCAAG [Fam3.1 aminoacylation ribozyme variant],0.635,1.04,1.3,0.981,1.07,1.01
AAGUUGGCUAUUAGUCGCAAG [Fam3.1 aminoacylation ribozyme variant],1.85,1.49,2,1.55,1.62,1.36
CUACUUAAAACAAUCAGUCUG [Fam1A.1 aminoacylation ribozyme variant],0.512,0.915,0.877,0.689,0.715,0.723
AGUCACCUAGGUCAUCGGGCG [Fam2.2 aminoacylation ribozyme variant],5.95,4.05,4.56,25.5,4.87,5.28
AUUCACCCAGGUCAUGGGGUG [Fam2.2 aminoacylation ribozyme variant],8.21,5.23,5.18,67.1,13.8,10.2
CUACUUCAAACAAUCCGUAUG [Fam1A.1 aminoacylation ribozyme variant],0.715,0.81,0.723,0.759,0.769,0.65
CUACUUCAAGCAAGCGGUCUG [Fam1A.1 aminoacylation ribozyme variant],0.849,0.854,1.12,0.897,0.958,0.867
CCACCCUUCCAGCAAUCGGUC [Fam1B.1 aminoacylation ribozyme variant],1.51,1.94,1.41,1.15,1.04,1.02
CUACGUCAAACAAUCGGGCUG [Fam1A.1 aminoacylation ribozyme variant],2.32,2.33,1.9,0.86,2.05,2.42
AUUACCCUGAUCAUCGAGUCA [Fam2.1 aminoacylation ribozyme variant],0.305,0.786,0.738,0.555,0.722,0.577
AAGUUUGCUCAUAAUCGCAAG [Fam3.1 aminoacylation ribozyme variant],0.658,0.766,0.812,0.71,0.726,0.699
AAGUUUGCUAACAGACGCAAG [Fam3.1 aminoacylation ribozyme variant],0.444,0.733,0.512,1.06,0.38,0.478
ACUCACCUAGGUCACCGGGUG [Fam2.2 aminoacylation ribozyme variant],7.92,5.05,4.71,34.2,7.47,3.64
CCACACAUCAAGCAUUCGGUC [Fam1B.1 aminoacylation ribozyme variant],1.19,1.64,1.75,1.02,1.48,1.6
CCACUUGAAACAAUCGGUCUG [Fam1A.1 aminoacylation ribozyme variant],0.785,1.18,1.15,0.824,1.03,1.19
AAGUUAGCUAAUAGUUGCAAG [Fam3.1 aminoacylation ribozyme variant],2.07,1.33,1.47,1.8,1.59,1.45
AUGCACCUUGGUCAUCGGGUG [Fam2.2 aminoacylation ribozyme variant],8.29,5.41,5.37,65.4,9.83,7.63
